In patent publication US20110039770A1, “INHIBITORS OF PROTEIN KINASE C ISOFORMS AND USES THEREOF” (PHARMAGAP INC., priority 2005, published 2011):
Where a SMILES comes first, the peptide text is derived from it. [ ]: non-standard residue; d: D form.

Assays:
PKC-ζ = target: T1, PKC-ζ (Homo sapiens, UniProt Q05513); assay: ELISA-based competitive binding assay with purified PKC isoform; set-up: key to Affinity for PKC isoform ζ: —: no detectable affinity; Low to very low affinity at 10X or 20X or both PRE concentrations in at least one cell line in the cell extract assay; Low affinity in purified isoform assay.; Moderate affinity at 10X or 20X or both PRE concentrations in at least one cell line in the cell extract assay.; High affinity at 10X or 20X or both PRE concentrations in at least one cell line in the cell extract assay; High affinity in purified isoform assay; details: for Affinity for PKC isoform ζ: Purified isoform
T1 sequence (Q05513 1-592): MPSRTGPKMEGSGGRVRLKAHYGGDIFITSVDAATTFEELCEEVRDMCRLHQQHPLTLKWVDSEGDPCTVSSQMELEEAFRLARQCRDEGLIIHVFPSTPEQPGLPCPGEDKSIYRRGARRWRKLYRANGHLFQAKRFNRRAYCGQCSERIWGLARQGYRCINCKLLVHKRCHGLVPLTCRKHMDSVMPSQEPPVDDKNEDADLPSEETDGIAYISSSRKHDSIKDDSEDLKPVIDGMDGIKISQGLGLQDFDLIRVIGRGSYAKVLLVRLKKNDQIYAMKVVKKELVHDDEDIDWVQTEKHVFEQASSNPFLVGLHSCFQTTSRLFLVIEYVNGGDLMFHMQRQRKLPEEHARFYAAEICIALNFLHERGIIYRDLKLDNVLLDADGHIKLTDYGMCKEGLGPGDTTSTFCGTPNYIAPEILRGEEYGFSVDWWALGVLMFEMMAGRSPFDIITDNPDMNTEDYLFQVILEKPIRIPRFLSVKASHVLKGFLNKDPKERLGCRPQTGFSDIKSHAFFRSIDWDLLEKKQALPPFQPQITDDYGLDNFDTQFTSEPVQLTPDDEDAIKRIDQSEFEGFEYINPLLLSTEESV
Method: (§1) Peptides PRE 1, 2, 3, 4, 5, 6, 7, 8, 9, 10, 11, 12 and 13 (see Table 3) were tested for their ability to interfere with binding of PKC isoform-specific antibodies to their target PKC isoforms using a competitive binding assay and purified PKC isoforms.
(§2) Procedure: Competitive binding was assessed using a 96 well plate ELISA-based assay as described below.
(§3) Greiner 96 well ELISA plates were coated with the appropriate PKC isoform diluted in PBSN (PBS with Calcium/Magnesium+0.05% Sodium azide w/w). 50 μL/well at 250 ng/mL was used. Control wells contained PBSN only. Plates were incubated overnight at 4° C.
(§4) The plates were washed 3 times with 200 μL of dH2O per well, then 100 μL of blocking solution was added per well and the plate incubated for 1 h at 37° C. The washing steps with dH2O were repeated and 50 μL of the appropriate PRE solution (PRE stock solution [20 mM in DMSO] diluted in PBSN) was added and the plate incubated for 1 h at room temperature.
(§5) After incubation, 5 μL of 1.1:400 anti-PKC (isoform specific antibody) was added per well (to provide a final concentration of 1:4000). For PKC-epsilon, 1.1:800 dilution was used and for PKC-zeta a 1.1:100 dilution was used due to high and low binding affinity, respectively. The plates were then incubated 1 h at room temperature, followed by washing with dH2O as described above.
(§6) 50 μL of 1:1000 dilution of Alkaline Phosphatase (AP) conjugated antibody (anti-rabbit for all except zeta, which was anti-goat) was then added and the plate incubated for 1 h at room temperature. Washing with dH2O was then repeated. Finally, 100 μL of pNPP solution in pNPP buffer (2 mM MgCl2, 100 mM Sodium bicarbonate in water, pH 9.8) was added to all wells and incubated for 8 minutes for α, βI, βII ε, and ζ, or for 15-20 mins for δ (until sufficient coloration is observed). The reaction was stopped by addition of Stop solution (2N NaOH) and the absorbance at 405 nm was read on a Galaxy Plate reader.
(§7) Controls were PKC without PRE; blank controls, and controls containing the final concentrations of DMSO used for solubilizing the PREs. The non-specific binding capacity related to DMSO was also measured.
(§8) The antibodies used were as follows: anti-PKC α (Cat. No. SC-208); anti-PKC βI (Cat. No. SC-209); anti-PKC βII (Cat. No. SC-210); anti-PKC δ (Cat. No. SC-213); anti-PKC ε (Cat. No. SC-214); anti-PKC ζ (Cat. No. SC-216-G) (all from Santa Cruz Biotechnology, Inc.). The AP-conjugated antibodies were obtained from Jackson Immuno Research Laboratories (West Grove, Pa.).
(§9) Calculations: The OD values measured at 405 nm represent the free PKC coated per well.
(§10) OD405 PKC alone−Blank OD405 of each sample=OD405 coated isoform
(§11) (OD405 of sample X/OD405 coated isoform)×100=% n that represents the percentage of X binding compared to control.
(§12) 100-% n measures the relative binding capacity of X towards the tested isoform.
(§13) The apparent binding capacity of the DMSO samples was then subtracted from X binding capacity.
(§14) All measurements were made in triplicate and the values in the table represent the averaged calculated binding capacity values after subtraction of the DMSO apparent binding capacity (averaged from 12 values, respectively 10.80, 11.20 and 16.40 corresponding to the concentrations of DMSO used to dilute the […] at 200, 100 and 50 μM respectively). The results allow for quantitative comparison of the binding capacity of each PRE towards an individual isoform within each table, but not among isoforms due to differences in sensitivity of the specific antibodies toward the secondary antibody. This applies particularly to PKC-delta. As noted above, the colour development duration was increased 2-3 times and, as a result, the OD405 measurements may be overestimated for this isoform.

PKC-δ = PKC-δ (Homo sapiens, UniProt Q05655); assay: as above; set-up: key to Affinity for PKC isoform δ: —: no detectable affinity; Low to very low affinity at 10X or 20X or both PRE concentrations in at least one cell line in the cell extract assay; Low affinity in purified isoform assay.; Moderate affinity at 10X or 20X or both PRE concentrations in at least one cell line in the cell extract assay.; High affinity at 10X or 20X or both PRE concentrations in at least one cell line in the cell extract assay; High affinity in purified isoform assay; details: for Affinity for PKC isoform δ: Purified isoform
Chain of PKC-δ (Q05655 whole entry, canonical isoform): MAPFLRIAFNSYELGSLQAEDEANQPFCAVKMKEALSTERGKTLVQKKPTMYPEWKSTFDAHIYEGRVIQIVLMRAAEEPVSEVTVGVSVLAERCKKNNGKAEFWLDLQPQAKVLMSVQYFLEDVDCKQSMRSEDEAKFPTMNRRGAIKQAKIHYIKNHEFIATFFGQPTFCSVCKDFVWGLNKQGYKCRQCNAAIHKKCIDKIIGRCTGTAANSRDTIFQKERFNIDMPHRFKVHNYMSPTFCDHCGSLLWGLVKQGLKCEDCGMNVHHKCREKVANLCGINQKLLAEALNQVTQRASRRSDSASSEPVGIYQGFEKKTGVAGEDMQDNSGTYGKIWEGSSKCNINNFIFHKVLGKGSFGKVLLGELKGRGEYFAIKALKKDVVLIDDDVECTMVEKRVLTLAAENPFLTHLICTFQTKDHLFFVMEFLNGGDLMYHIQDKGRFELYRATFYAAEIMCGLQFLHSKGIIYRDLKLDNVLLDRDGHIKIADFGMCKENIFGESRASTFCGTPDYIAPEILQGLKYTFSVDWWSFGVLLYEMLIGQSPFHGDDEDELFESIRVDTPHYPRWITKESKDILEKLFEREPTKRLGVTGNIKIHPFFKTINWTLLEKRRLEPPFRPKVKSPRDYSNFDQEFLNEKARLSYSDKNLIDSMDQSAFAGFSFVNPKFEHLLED
Method: as §1, §2, §3, §4, §5, §6, §7, §8, §9, §10, §11, §12, §13, §14

[1] = PRE 50 μM, purified PKC-ζ, read-out: calculated binding capacity (100-% n, DMSO apparent binding subtracted)
[2] = PRE 100 μM, purified PKC-ζ, read-out: calculated binding capacity (100-% n, DMSO apparent binding subtracted)

Row | Compound | Affinity for PKC isoform ζ (PKC-ζ) | Affinity for PKC isoform δ (PKC-δ) | other results
1 | CC[C@H](C)[C@H](NC(=O)[C@H](CO)NC(=O)[C@@H](NC(=O)CNC(=O)[C@@H](NC(=O)[C@H](CC(C)C)NC(=O)[C@H](CC(N)=O)NC(=O)[C@H](CCC(N)=O)NC(=O)[C@H](C)NC(=O)[C@H](CC(=O)O)NC(=O)CNC(=O)CNC(=O)[C@H](CCCCN)NC(=O)[C@@H](NC(=O)[C@H](CCC(=O)O)NC(=O)[C@H](CCC(N)=O)NC(=O)[C@@H](NC(=O)CNC(=O)[C@H](CCCCN)NC(=O)[C@H](C)NC(C)=O)[C@@H](C)CC)C(C)C)[C@@H](C)CC)[C@@H](C)CC)C(N)=O [PRE 3] (Ac-AKGIQEVKGGDAQNLIGISI-NH2) | H | H | 
2 | Ac-ISIGILQNADK-NH2 (not fully specified; printed as Ac-ISIGILQNADK-NH2) [PRE 7] | — | — | calculated binding capacity (100-% n, DMSO apparent binding subtracted) (PKC-ζ; PRE 50 μM, purified PKC-ζ): 1.83%; calculated binding capacity (100-% n, DMSO apparent binding subtracted) (PKC-ζ; PRE 200 μM, purified PKC-ζ): 1.54%
3 | RRKKGGKDFVVKR [PRE 1] | — | H | calculated binding capacity (100-% n, DMSO apparent binding subtracted) (PKC-ζ; PRE 50 μM, purified PKC-ζ): 4.11%
4 | Ac-KDANQLIGISI-NH2 [PRE 6] | — | L | 
5 | CC[C@H](C)[C@H](NC(=O)[C@H](CO)NC(=O)[C@@H](NC(=O)CNC(=O)[C@@H](NC(=O)[C@H](CC(C)C)NC(=O)[C@H](CC(N)=O)NC(=O)[C@H](CCC(N)=O)NC(=O)[C@H](C)NC(=O)[C@H](CC(=O)O)NC(=O)[C@H](CCCCN)NC(C)=O)[C@@H](C)CC)[C@@H](C)CC)C(N)=O [PRE 4, Ac-KDAQNLIGISI-NH2] (Ac-KDAQNLIGISI-NH2) | — | H | inhibition at 50 µM (PKC-ζ; [1]): 0%; inhibition at 100 µM (PKC-ζ; [2]): 0%
6 | CC[C@H](C)[C@H](NC(=O)[C@H](CO)NC(=O)[C@@H](NC(=O)CNC(=O)[C@@H](NC(=O)[C@H](CC(C)C)NC(=O)[C@H](CC(N)=O)NC(=O)[C@H](CCC(N)=O)NC(=O)[C@H](C)NC(=O)[C@H](CC(=O)O)NC(=O)[C@H](CCCCN)NC(=O)CNC(=O)CNC(=O)[C@H](CCCCN)NC(=O)[C@@H](NC(=O)[C@H](CCC(=O)O)NC(=O)[C@H](CCC(N)=O)NC(=O)[C@@H](NC(=O)CNC(=O)[C@H](CCCCN)NC(=O)[C@H](C)NC(C)=O)[C@@H](C)CC)C(C)C)[C@@H](C)CC)[C@@H](C)CC)C(N)=O [PRE 5] (Ac-AKGIQEVKGGKDAQNLIGISI-NH2) | — | L | inhibition at 50 µM (PKC-ζ; [1]): 0%; inhibition at 100 µM (PKC-ζ; [2]): 0%; inhibition at 200 µM (PKC-ζ; PRE 200 μM, purified PKC-ζ, read-out: calculated binding capacity (100-% n, DMSO apparent binding subtracted)): 0%; inhibition at 50 µM (PKC-δ; PRE 50 μM, purified PKC-δ (may be overestimated), read-out: calculated binding capacity (100-% n, DMSO apparent binding subtracted)): 0.2%; inhibition at 100 µM (PKC-δ; PRE 100 μM, purified PKC-δ (may be overestimated), read-out: calculated binding capacity (100-% n, DMSO apparent binding subtracted)): 0%

Continued, in another order:

Row | Affinity for PKC isoform ζ (PKC-ζ) | Affinity for PKC isoform δ (PKC-δ) | Compound | other results
7 | — | L | Ac-KDAQNLI-NH2 [PRE 12] | calculated binding capacity (100-% n, DMSO apparent binding subtracted) (PKC-ζ; PRE 50 μM, purified PKC-ζ): 4.20%; calculated binding capacity (100-% n, DMSO apparent binding subtracted) (PKC-ζ; PRE 100 μM, purified PKC-ζ): 8.77%; calculated binding capacity (100-% n, DMSO apparent binding subtracted) (PKC-ζ; PRE 200 μM, purified PKC-ζ): 0.33%
8 | — | — | Ac-ISIGILNQADK-NH2 [PRE 10] | 
9 | — | L | Ac-isigilqnadk-NH2 (Ac-[dI][dS][dI]G[dI][dL][dQ][dN][dA][dD][dK]-NH2; SMILES CC[C@@H](C)[C@@H](NC(C)=O)C(=O)N[C@H](CO)C(=O)N[C@@H](C(=O)NCC(=O)N[C@@H](C(=O)N[C@H](CC(C)C)C(=O)N[C@H](CCC(N)=O)C(=O)N[C@H](CC(N)=O)C(=O)N[C@H](C)C(=O)N[C@H](CC(=O)O)C(=O)N[C@H](CCCCN)C(N)=O)[C@H](C)CC)[C@H](C)CC) [PRE 9] | calculated binding capacity (100-% n, DMSO apparent binding subtracted) (PKC-δ; PRE 50 μM, purified PKC-δ (may be overestimated)): 16.23%; calculated binding capacity (100-% n, DMSO apparent binding subtracted) (PKC-δ; PRE 100 μM, purified PKC-δ (may be overestimated)): 19.27%; calculated binding capacity (100-% n, DMSO apparent binding subtracted) (PKC-δ; PRE 200 μM, purified PKC-δ (may be overestimated)): 9.95%
10 | — | L | Ac-RDAQNLI-NH2 [PRE 13] | calculated binding capacity (100-% n, DMSO apparent binding subtracted) (PKC-ζ; PRE 200 μM, purified PKC-ζ): 4.29%
11 | — | — | ILEDKGGDAQNLIGISI [PRE 8] | 
12 | — | H | Ac-RDAQNLIGISI-NH2 [PRE 11] | 
